Test results published in patent US20080213836.

Assays:
[1] = system: T1, Gly-Asp-Asp-Asp-Asp-Lys-β-naphthylamide
T1 sequence: GDDDDK

[2] = system: recombinant fusion protein of Medaka trypsinogen

What does the source list for Medaka EP-2 serine protease domain?
enzyme activity for GD4K-βNA [1]: Both enzymes showed maximal activities for GD4K-βNA at pH 8; conversion of trypsinogen to active trypsin [2]: The trypsinogen was converted to active trypsin by EP-1 faster than by EP-2
